Source: patent US20150098945A1 (Daiichi Sankyo, published 2015)

Biological target: T1, N-terminal FLAG-tagged cynomolgus monkey ROBO4, cynoROBO4-2 (pCI-FLAG-cynoROBO4-2) (cynomolgus monkey, UniProt Q8WZ75 28-1007 (human entry))
T1 chain: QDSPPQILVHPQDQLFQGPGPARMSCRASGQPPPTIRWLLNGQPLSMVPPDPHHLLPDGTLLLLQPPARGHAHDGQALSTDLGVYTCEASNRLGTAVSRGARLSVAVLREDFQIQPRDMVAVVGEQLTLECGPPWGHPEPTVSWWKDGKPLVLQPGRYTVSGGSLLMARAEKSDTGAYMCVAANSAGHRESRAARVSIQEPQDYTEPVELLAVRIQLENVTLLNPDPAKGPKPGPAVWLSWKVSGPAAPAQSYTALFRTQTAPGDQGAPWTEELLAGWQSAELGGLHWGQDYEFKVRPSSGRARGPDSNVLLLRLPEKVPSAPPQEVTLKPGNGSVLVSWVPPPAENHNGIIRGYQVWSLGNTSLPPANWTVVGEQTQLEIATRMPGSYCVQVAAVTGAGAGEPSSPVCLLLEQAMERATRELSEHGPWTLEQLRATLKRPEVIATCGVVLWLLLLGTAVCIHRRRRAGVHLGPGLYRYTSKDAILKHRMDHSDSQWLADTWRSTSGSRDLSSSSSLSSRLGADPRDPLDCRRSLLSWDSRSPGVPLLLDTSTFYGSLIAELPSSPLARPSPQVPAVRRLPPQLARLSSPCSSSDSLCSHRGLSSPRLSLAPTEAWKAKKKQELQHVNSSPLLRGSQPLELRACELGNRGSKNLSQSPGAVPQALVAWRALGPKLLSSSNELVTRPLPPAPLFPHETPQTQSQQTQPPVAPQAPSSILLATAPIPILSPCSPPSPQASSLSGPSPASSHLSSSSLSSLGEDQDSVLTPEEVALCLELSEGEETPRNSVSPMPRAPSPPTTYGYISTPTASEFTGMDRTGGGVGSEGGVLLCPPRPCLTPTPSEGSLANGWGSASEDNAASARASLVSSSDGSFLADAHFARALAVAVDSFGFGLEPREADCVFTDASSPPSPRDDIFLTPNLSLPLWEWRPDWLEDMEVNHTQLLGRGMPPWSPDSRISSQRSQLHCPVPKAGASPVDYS
Test: flow cytometry, HEK293 cells transfected with pCI-FLAG-cynoROBO4-2, antibody at 10 µg/mL, anti-mouse IgG FITC; control histogram IgG (Mouse IgG2a)
Procedure: HEK293 cells were inoculated at a concentration of 1.5×10⁶ cells/dish to a 60-mm dish (manufactured by Corning Inc.) and cultured overnight in a DMEM medium containing 10% FBS at 37° C. under 5% CO₂ conditions. On the next day, the HEK293 cells were transfected with pCI-hROBO4, pCI-mROBO4, pCI-raROBO4, pCI-FLAG-cynoROBO4-1, pCI-FLAG-cynoROBO4-2, pCI-hROBO1, pCI-hROBO2, or pCI-hROBO3 using FuGENE6 Transfection Reagent and further cultured overnight at 37° C. under 5% CO₂ conditions. On the next day, the expression vector-transfected cells were treated with TrypLE Express (manufactured by Life Technologies Corp.), washed with PBS containing 5% FBS, and then suspended in PBS containing 5% FBS. The obtained cell suspension was used in flow cytometry analysis.
Each cell suspension prepared in 4)-3-1 was centrifuged, and the supernatant was removed. Then, MAb1 or a negative control Mouse IgG2a was added at a concentration of 10 μg/mL to 2×10⁵ expression vector-transfected cells, and the resulting suspension was left standing at 4° C. for 1 hour. […] Data was analyzed using Flowjo. The histogram of FITC fluorescence intensity was prepared. The antibody was determined to bind in a cross-species manner when the histogram of MAb1 was shifted to a stronger fluorescence intensity region compared with the histogram of the negative control Mouse IgG2a.

- binding result: binds
B1: anti-ROBO4 mouse monoclonal antibody MAb1 (antibody, mouse IgG1, V domains shown)
VH: EVQLVESGGGLVKPGGSLKLSCAASGFTFSTYAMSWVRQTPEKRLEWVATISNGGTYTYYPDSVKGRFTISRDNAENTLYLQMSSLRSEDTAMYFCARLIYYDYLDYWGHGTTLTVSS
VL: DAVMTQTPLSLPVSLGDQASISCRSSQSLENSNGNTYLNWYFQKPGQSPQLLIYRVSNRFSGVLDRFSGSGSGTDFTLKISRVEAEDFGVYFCLQVTHVPWTFGGGTKLEIKR
notes: Mouse IgG1 (gamma1), kappa light chain, purified from hybridoma supernatant; also called parent antibody MAb1
